According to the Human Domainome abundance scans (Beltran et al. 2025):
± gives the uncertainty stated by the source.

B1: Transcriptional regulator ERG, residues 117 to 197; numbered along this chain, P11308 (parent)
chain: NMTTNERRVIVPADPTLWSTDHVRQWLEWAVKEYGLPDVNILLFQNIDGKELCKMTKDDFQRLTPSYNADILLSHLHYLRE

Variants of: B1
Assay: abundance fitness (aPCA) (normalised: wild type 0, dead -1); higher = more abundant; growth selection in yeast, the domain comes from the species named
Conditions: Homo sapiens

**Q.** With NMTTNERREIVPADPTLWSTDHVRQWLEWAVKEYGLPDVNILLFQNIDGKELCKMTKDDFQRLTPSYNADILLSHLHYLRE as the variant, how does the abundance fitness read?
**A.** Its abundance fitness is 0.207 ± 0.075.

**Q.** Which abundance fitness does the source give for NMTTNERRYIVPADPTLWSTDHVRQWLEWAVKEYGLPDVNILLFQNIDGKELCKMTKDDFQRLTPSYNADILLSHLHYLRE here?
**A.** Its abundance fitness is -0.062 ± 0.044.

**Q.** With NMTTNERRTIVPADPTLWSTDHVRQWLEWAVKEYGLPDVNILLFQNIDGKELCKMTKDDFQRLTPSYNADILLSHLHYLRE as the variant, how does the abundance fitness read?
**A.** The abundance fitness was 0.054 ± 0.043.

**Q.** With NMTTNERRAIVPADPTLWSTDHVRQWLEWAVKEYGLPDVNILLFQNIDGKELCKMTKDDFQRLTPSYNADILLSHLHYLRE as the variant, how does the abundance fitness read?
**A.** The abundance fitness was 0.12 ± 0.045.

**Q.** For NMTTNERRMIVPADPTLWSTDHVRQWLEWAVKEYGLPDVNILLFQNIDGKELCKMTKDDFQRLTPSYNADILLSHLHYLRE, which abundance fitness is on record?
**A.** Its abundance fitness is 0.132 ± 0.049.

**Q.** With NMTTNERRDIVPADPTLWSTDHVRQWLEWAVKEYGLPDVNILLFQNIDGKELCKMTKDDFQRLTPSYNADILLSHLHYLRE as the variant, how does the abundance fitness read?
**A.** Its abundance fitness is 0.269 ± 0.052.

**Q.** Which abundance fitness does the source give for NMTTNERRNIVPADPTLWSTDHVRQWLEWAVKEYGLPDVNILLFQNIDGKELCKMTKDDFQRLTPSYNADILLSHLHYLRE here?
**A.** The abundance fitness was 0.099 ± 0.044.

**Q.** Which abundance fitness does the source give for NMTTNERRSIVPADPTLWSTDHVRQWLEWAVKEYGLPDVNILLFQNIDGKELCKMTKDDFQRLTPSYNADILLSHLHYLRE here?
**A.** The abundance fitness was 0.137 ± 0.036.

**Q.** For NMTTNERRKIVPADPTLWSTDHVRQWLEWAVKEYGLPDVNILLFQNIDGKELCKMTKDDFQRLTPSYNADILLSHLHYLRE, which abundance fitness is on record?
**A.** The abundance fitness was 0.16 ± 0.06.

**Q.** With NMTTNERRPIVPADPTLWSTDHVRQWLEWAVKEYGLPDVNILLFQNIDGKELCKMTKDDFQRLTPSYNADILLSHLHYLRE as the variant, how does the abundance fitness read?
**A.** The abundance fitness was 0.292 ± 0.051.

**Q.** Which abundance fitness does the source give for NMTTNERRCIVPADPTLWSTDHVRQWLEWAVKEYGLPDVNILLFQNIDGKELCKMTKDDFQRLTPSYNADILLSHLHYLRE here?
**A.** The abundance fitness was 0.046 ± 0.063.

**Q.** Which abundance fitness does the source give for NMTTNERRRIVPADPTLWSTDHVRQWLEWAVKEYGLPDVNILLFQNIDGKELCKMTKDDFQRLTPSYNADILLSHLHYLRE here?
**A.** The abundance fitness was 0.113 ± 0.043.

**Q.** Which abundance fitness does the source give for NMTTNERRLIVPADPTLWSTDHVRQWLEWAVKEYGLPDVNILLFQNIDGKELCKMTKDDFQRLTPSYNADILLSHLHYLRE here?
**A.** Its abundance fitness is 0.096 ± 0.035.

**Q.** For NMTTNERRWIVPADPTLWSTDHVRQWLEWAVKEYGLPDVNILLFQNIDGKELCKMTKDDFQRLTPSYNADILLSHLHYLRE, which abundance fitness is on record?
**A.** Its abundance fitness is 0.038 ± 0.07.

**Q.** With NMTTNERRFIVPADPTLWSTDHVRQWLEWAVKEYGLPDVNILLFQNIDGKELCKMTKDDFQRLTPSYNADILLSHLHYLRE as the variant, how does the abundance fitness read?
**A.** Its abundance fitness is 0.075 ± 0.045.

**Q.** For NMTTNERRIIVPADPTLWSTDHVRQWLEWAVKEYGLPDVNILLFQNIDGKELCKMTKDDFQRLTPSYNADILLSHLHYLRE, which abundance fitness is on record?
**A.** The abundance fitness was -0.034 ± 0.044.

**Q.** With NMTTNERRQIVPADPTLWSTDHVRQWLEWAVKEYGLPDVNILLFQNIDGKELCKMTKDDFQRLTPSYNADILLSHLHYLRE as the variant, how does the abundance fitness read?
**A.** Its abundance fitness is 0.243 ± 0.055.

**Q.** For NMTTNERRHIVPADPTLWSTDHVRQWLEWAVKEYGLPDVNILLFQNIDGKELCKMTKDDFQRLTPSYNADILLSHLHYLRE, which abundance fitness is on record?
**A.** Its abundance fitness is 0.034 ± 0.048.

**Q.** With NMTTNERRVGVPADPTLWSTDHVRQWLEWAVKEYGLPDVNILLFQNIDGKELCKMTKDDFQRLTPSYNADILLSHLHYLRE as the variant, how does the abundance fitness read?
**A.** The abundance fitness was 0.227 ± 0.03.

**Q.** Which abundance fitness does the source give for NMTTNERRVCVPADPTLWSTDHVRQWLEWAVKEYGLPDVNILLFQNIDGKELCKMTKDDFQRLTPSYNADILLSHLHYLRE here?
**A.** The abundance fitness was -0.026 ± 0.066.

**Q.** Which abundance fitness does the source give for NMTTNERRVKVPADPTLWSTDHVRQWLEWAVKEYGLPDVNILLFQNIDGKELCKMTKDDFQRLTPSYNADILLSHLHYLRE here?
**A.** Its abundance fitness is 0.109 ± 0.055.

**Q.** With NMTTNERRVHVPADPTLWSTDHVRQWLEWAVKEYGLPDVNILLFQNIDGKELCKMTKDDFQRLTPSYNADILLSHLHYLRE as the variant, how does the abundance fitness read?
**A.** The abundance fitness was 0.138 ± 0.085.

**Q.** Which abundance fitness does the source give for NMTTNERRVFVPADPTLWSTDHVRQWLEWAVKEYGLPDVNILLFQNIDGKELCKMTKDDFQRLTPSYNADILLSHLHYLRE here?
**A.** Its abundance fitness is -0.06 ± 0.077.

**Q.** Which abundance fitness does the source give for NMTTNERRVDVPADPTLWSTDHVRQWLEWAVKEYGLPDVNILLFQNIDGKELCKMTKDDFQRLTPSYNADILLSHLHYLRE here?
**A.** The abundance fitness was 0.328 ± 0.066.

**Q.** Which abundance fitness does the source give for NMTTNERRVAVPADPTLWSTDHVRQWLEWAVKEYGLPDVNILLFQNIDGKELCKMTKDDFQRLTPSYNADILLSHLHYLRE here?
**A.** Its abundance fitness is 0.124 ± 0.039.

**Q.** For NMTTNERRVEVPADPTLWSTDHVRQWLEWAVKEYGLPDVNILLFQNIDGKELCKMTKDDFQRLTPSYNADILLSHLHYLRE, which abundance fitness is on record?
**A.** The abundance fitness was 0.21 ± 0.043.

**Q.** Which abundance fitness does the source give for NMTTNERQVIVPADPTLWSTDHVRQWLEWAVKEYGLPDVNILLFQNIDGKELCKMTKDDFQRLTPSYNADILLSHLHYLRE here?
**A.** Its abundance fitness is -0.011 ± 0.063.

**Q.** Which abundance fitness does the source give for NMTTNERPVIVPADPTLWSTDHVRQWLEWAVKEYGLPDVNILLFQNIDGKELCKMTKDDFQRLTPSYNADILLSHLHYLRE here?
**A.** The abundance fitness was -0.137 ± 0.066.

**Q.** Which abundance fitness does the source give for NMTTNERYVIVPADPTLWSTDHVRQWLEWAVKEYGLPDVNILLFQNIDGKELCKMTKDDFQRLTPSYNADILLSHLHYLRE here?
**A.** Its abundance fitness is -0.496 ± 0.11.

**Q.** With NMTTNERTVIVPADPTLWSTDHVRQWLEWAVKEYGLPDVNILLFQNIDGKELCKMTKDDFQRLTPSYNADILLSHLHYLRE as the variant, how does the abundance fitness read?
**A.** The abundance fitness was -0.022 ± 0.053.

**Q.** For NMTTNERWVIVPADPTLWSTDHVRQWLEWAVKEYGLPDVNILLFQNIDGKELCKMTKDDFQRLTPSYNADILLSHLHYLRE, which abundance fitness is on record?
**A.** The abundance fitness was -0.881 ± 0.19.

**Q.** With NMTTNERVVIVPADPTLWSTDHVRQWLEWAVKEYGLPDVNILLFQNIDGKELCKMTKDDFQRLTPSYNADILLSHLHYLRE as the variant, how does the abundance fitness read?
**A.** The abundance fitness was -0.478 ± 0.083.

**Q.** For NMTTNERNVIVPADPTLWSTDHVRQWLEWAVKEYGLPDVNILLFQNIDGKELCKMTKDDFQRLTPSYNADILLSHLHYLRE, which abundance fitness is on record?
**A.** The abundance fitness was 0.028 ± 0.064.

**Q.** Which abundance fitness does the source give for NMTTNERSVIVPADPTLWSTDHVRQWLEWAVKEYGLPDVNILLFQNIDGKELCKMTKDDFQRLTPSYNADILLSHLHYLRE here?
**A.** The abundance fitness was -0.117 ± 0.052.
